The results in this text go back to patent US20130337579, “Methods for Determining Protein Ligand Binding” (UNIVERSITY OF MARYLAND, COLLEGE PARK, published 2013).

The target in series [1] is CRP (catabolite activator protein, cAMP receptor protein) (Escherichia coli, UniProt P0ACJ8 P0ACJ8:2-210). The experiment in a line: DRaCALA; 100 nM CRP, 4 nM probe, 200 uM cAMP. Conditions: tags: His-CRP expressed from pBAD-CRP, Ni-NTA and anion exchange; chain copies: 2; label: 5'-32P.
The target in series [2] is MBP (maltose binding protein) (UniProt P0AEX9 P0AEX9:27-396). The experiment in a line: DRaCALA; 100 nM MBP, 4 nM probe, 200 uM cAMP.

Chain of CRP (catabolite activator protein, cAMP receptor protein) (P0ACJ8 2-210, one chain of several): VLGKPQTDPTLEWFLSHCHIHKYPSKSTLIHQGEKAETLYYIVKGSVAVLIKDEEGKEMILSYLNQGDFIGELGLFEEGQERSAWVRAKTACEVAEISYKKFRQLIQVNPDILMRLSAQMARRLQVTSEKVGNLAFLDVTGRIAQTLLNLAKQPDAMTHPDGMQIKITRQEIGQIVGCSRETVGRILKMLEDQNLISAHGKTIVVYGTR

B1: 10:G-C oligo duplex (gd130/gd131) (dsDNA)
DNA 1: AGGAGGAATAAATGTCATCTAGATGACATTTTAGAGGAGG
DNA 2: CCTCCTCTAAAATGTCATCTAGATGACATTTATTCCTCCT
For the molecule B1, in series [1], the binding result is given as “no binding”.

B2: ICAP oligo duplex (gd126/gd127) (dsDNA)
DNA 1: AGGAGGAATAAATGTGATCTAGATCACATTTTAGAGGAGG
DNA 2: CCTCCTCTAAAATGTGATCTAGATCACATTTATTCCTCCT
B2: the binding result in series [2] is “no binding”.

B3: 8,10:G-C oligo duplex (gd132/gd133) (dsDNA)
DNA 1: AGGAGGAATAAATCTCATCTAGATGAGATTTTAGAGGAGG
DNA 2: CCTCCTCTAAAATCTCATCTAGATGAGATTTATTCCTCCT
B3: in series [1], the binding result is on record as “no binding”.
